Experimental data from patent US20250346663A1 (published 2025).

B1: human leptin receptor (Fc-tagged dimeric) (Fc fusion)
chain: FNLSYPITPWRFKLSCMPPNSTYDYFLLPAGLSKNTSNSNGHYETAVEPKFNSSGTHFSNLSKTTFHCCFRSEQDRNCSLCADNIEGKTFVSTVNSLVFQQIDANWNIQCWLKGDLKLFICYVESLFKNLFRNYNYKVHLLYVLPEVLEDSPLVPQKGSFQMVHCNCSVHECCECLVPVPTAKLNDTLLMCLKITSGGVIFQSPLMSVQPINMVKPDPPLGLHMEITDDGNLKISWSSPPLVPFPLQYQVKYSENSTTVIREADKIVSATSLLVDSILPGSSYEVQVRGKRLDGPGIWSDWSTPRVFTTQDVIYFPPKILTSVGSNVSFHCIYKKENKIVPSKEIVWWMNLAEKIPQSQYDVVSDHVSKVTFFNLNETKPRGKFTYDAVYCCNEHECHHRYAELYVIDVNINISCETDGYLTKMTCRWSTSTIQSLAESTLQLRYHRSSLYCSDIPSIHPISEPKDCYLQSDGFYECIFQPIFLLSGYTMWIRINHSLGSLDSPPTCVLPDSVVKPLPPSSVKAEITINIGLLKISWEKPVFPENNLQFQIRYGLSGKEVQWKMYEVYDAKSKSVSLPVPDLCAVYAVQVRCKRLDGLGYWSNWSNPAYTVVMDIKVPMRGPEFWRIINGDTMKKEKNVTLLWKPLMKNDSLCSVQRYVINHHTSCNGTWSEDVGNHTKFTFLWTEQAHTVTVLAINSIGASVANFNLTFSWPMSKVNIVQSLSAYPLNSSCVIVSWILSPSDYKLMYFIIEWKNLNEDGEIKWLRISSSVKKYYIHDHFIPIEKYQFSLYPIFMEGVGKPKIINSFTQDDIEKHQSD
B2: human FC-tagged dimeric leptin receptor (Fc fusion)
chain: FNLSYPITPWRFKLSCMPPNSTYDYFLLPAGLSKNTSNSNGHYETAVEPKFNSSGTHFSNLSKTTFHCCFRSEQDRNCSLCADNIEGKTFVSTVNSLVFQQIDANWNIQCWLKGDLKLFICYVESLFKNLFRNYNYKVHLLYVLPEVLEDSPLVPQKGSFQMVHCNCSVHECCECLVPVPTAKLNDTLLMCLKITSGGVIFQSPLMSVQPINMVKPDPPLGLHMEITDDGNLKISWSSPPLVPFPLQYQVKYSENSTTVIREADKIVSATSLLVDSILPGSSYEVQVRGKRLDGPGIWSDWSTPRVFTTQDVIYFPPKILTSVGSNVSFHCIYKKENKIVPSKEIVWWMNLAEKIPQSQYDVVSDHVSKVTFFNLNETKPRGKFTYDAVYCCNEHECHHRYAELYVIDVNINISCETDGYLTKMTCRWSTSTIQSLAESTLQLRYHRSSLYCSDIPSIHPISEPKDCYLQSDGFYECIFQPIFLLSGYTMWIRINHSLGSLDSPPTCVLPDSVVKPLPPSSVKAEITINIGLLKISWEKPVFPENNLQFQIRYGLSGKEVQWKMYEVYDAKSKSVSLPVPDLCAVYAVQVRCKRLDGLGYWSNWSNPAYTVVMDIKVPMRGPEFWRIINGDTMKKEKNVTLLWKPLMKNDSLCSVQRYVINHHTSCNGTWSEDVGNHTKFTFLWTEQAHTVTVLAINSIGASVANFNLTFSWPMSKVNIVQSLSAYPLNSSCVIVSWILSPSDYKLMYFIIEWKNLNEDGEIKWLRISSSVKKYYIHDHFIPIEKYQFSLYPIFMEGVGKPKIINSFTQDDIEKHQSD

Assays:
Gen2 leptin = experiment: BLI; sample PP5871-021
[1] = target: mbp_G4S_hlep(22-167)V94M (MBP-(G4S)-human leptin V94M-6His); experiment: BLI; sample PP2054-095

Binder | Kd (Gen2 leptin) [nM] | Kd [1] [nM]
B1 | 1.41 | 
B2 |  | 0.93
